Experimental data as given in patent US20200101152A1 (INSERM INSTITUT NATIONAL DE LA SANTE ET DE LA RECHERCHE …, published 2020).

Tests used:
[1] = biological target: T1, human CD40 ectodomain fused to cohesin (human, UniProt P25942 22-193); assay: multiplexed bead-based equilibrium competition; human CD40 ectodomain beads; competitor mouse 12E12 mAb 10 ng/ml, PE anti-mouse IgG, Bio-Plex 200
T1 construct: also called human CD40 coated beads; not shown: cohesin carrier (GenBank CP000568.1 nt 3622666-3623172) and the Nhe I site linker

[2] = biological target: Rhesus macaque (NHP) CD40 ectodomain fused to cohesin (Rhesus macaque, UniProt F6SNI1 21-193); assay: multiplexed bead-based equilibrium competition; NHP CD40 ectodomain beads; competitor mouse 12E12 mAb 10 ng/ml, PE anti-mouse IgG, Bio-Plex 200
Chain of Rhesus macaque (NHP) CD40 ectodomain fused to cohesin (F6SNI1 entry or part of it): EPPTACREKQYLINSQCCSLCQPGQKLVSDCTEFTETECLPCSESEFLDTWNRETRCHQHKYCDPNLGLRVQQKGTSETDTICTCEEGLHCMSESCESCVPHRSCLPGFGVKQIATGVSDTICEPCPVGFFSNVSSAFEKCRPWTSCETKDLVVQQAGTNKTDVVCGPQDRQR

T1 sequence (P25942 22-193 limits assumed, form in doubt): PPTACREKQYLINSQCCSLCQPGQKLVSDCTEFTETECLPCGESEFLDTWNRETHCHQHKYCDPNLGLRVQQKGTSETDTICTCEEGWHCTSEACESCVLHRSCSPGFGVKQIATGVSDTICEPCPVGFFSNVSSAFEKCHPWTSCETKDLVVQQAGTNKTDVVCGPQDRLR

B1: humanized αCD40 (humanized anti-human CD40 12E12 recombinant human IgG4 mAb) (antibody, V domains shown)
VH: EVQLVESGGGLVQPGGSLKLSCATSGFTFSDYYMYWVRQAPGKGLEWVAYINSGGGSTYYPDTVKGRFTISRDNAKNTLYLQMNSLRAEDTAVYYCARRGLPFHAMDYWGQGTLVTVSS
VL: DIQMTQSPSSLSASVGDRVTITCSASQGISNYLNWYQQKPGKAVKLLIYYTSILHSGVPSRFSGSGSGTDYTLTISSLQPEDFATYYCQQFNKLPPTFGGGTKLEIKG
notes: also called hAnti-CD40VH3-LV-hIgG4HC
Q: How did the IC50 [1] turn out when B1 was run?
A: 1 pM

Q: And the IC50 [2]?
A: 0.83 pM
